Legend:
[1] = biological target: C739A NCX1, full length, tetracycline-inducible in FT-293 cells (canine); experiment: cross-linking; FT-293 cells expressing tetracycline-inducible NCX1 treated with 0.1 mM BMH for 5 min at 37°C in 10 mM Tris-HCl pH 7.2, 150 mM NaCl; lysed in 1% Triton X-100; SDS-PAGE
[2] = biological target: the molecule itself; experiment: as above

| Molecule | stoichiometry N [1] | stoichiometry N [2] |
| --- | --- | --- |
| C739A NCX1, full length, tetracycline-inducible in FT-293 cells (natural protein) | 2 | – |
| wild-type (WT) NCX1, full length, tetracycline-inducible in FT-293 cells (natural protein, canine, UniProt P23685 33-970, looked up, palmitoylated at cysteine 739, Na-Ca exchanger 1, canine, NCX1.1 cDNA; Forms a dimer (cross-linking); The cell line is from Reilly et al., 2015; source: in cells or in lysate) ETEMEGEGNETGECTGSYYCKKGVILPIWEPQDPSFGDKIARATVYFVAMVYMFLGVSIIADRFMSSIEVITSQEKEITIKKPNGETTKTTVRIWNETVSNLTLMALGSSAPEILLSVIEVCGHNFTAGDLGPSTIVGSAAFNMFIIIALCVYVVPDGETRKIKHLRVFFVTAAWSIFAYTWLYIILSVISPGVVEVWEGLLTFFFFPICVVFAWVADRRLLFYKYVYKRYRAGKQRGMIIEHEGDRPSSKTEIEMDGKVVNSHVDNFLDGALVLEVDERDQDDEEARREMARILKELKQKHPEKEIEQLIELANYQVLSQQQKSRAFYRIQATRLMTGAGNILKRHAADQARKAVSMHEVNTEVAENDPVSKIFFEQGTYQCLENCGTVALTIIRRGGDLTNTVFVDFRTEDGTANAGSDYEFTEGTVVFKPGETQKEIRVGIIDDDIFEEDENFLVHLSNVKVSSEASEDGILEANHVSALACLGSPSTATVTIFDDDHAGIFTFEEPVTHVSESIGIMEVKVLRTSGARGNVIVPYKTIEGTARGGGEDFEDTCGELEFQNDEIVKTISVKVIDDEEYEKNKTFFLEIGEPRLVEMSEKKALLLNELGGFTITGKYLYGQPVFRKVHAREHPIPSTVITIAEEYDDKQPLTSKEEEERRIAEMGRPILGEHTKLEVIIEESYEFKSTVDKLIKKTNLALVVGTNSWREQFIEAITVSAGEDDDDDECGEEKLPSCFDYVMHFLTVFWKVLFAFVPPTEYWNGWACFIVSILMIGILTAFIGDLASHFGCTIGLKDSVTAVVFVALGTSVPDTFASKVAATQDQYADASIGNVTGSNAVNVFLGIGVAWSIAAIYHAANGEQFKVSPGTLAFSVTLFTIFAFINVGVLLYRRRPEIGGELGGPRTAKLLTSCLFVLLWLLYIFFSSLEAYCHIKGF | – | 2 |

Source: publication PMC7296346, “Dynamic Palmitoylation of the Sodium-Calcium Exchanger Modulates Its Structure, Affinity for Lipid-Ordered Domains, and Inhibition by XIP” (Cell Reports, 2020)
